This note sets out measurements from paper PMC12930632, “Free fatty acid receptor 2 allosterism is defined by cellular context” (Cell Communication and Signaling : CCS, 2026).

Assay [1] has as its target T1, free fatty acid receptor 2 (FFA2R; GPR43), WT (human) (UniProt O15552).
T1 sequence: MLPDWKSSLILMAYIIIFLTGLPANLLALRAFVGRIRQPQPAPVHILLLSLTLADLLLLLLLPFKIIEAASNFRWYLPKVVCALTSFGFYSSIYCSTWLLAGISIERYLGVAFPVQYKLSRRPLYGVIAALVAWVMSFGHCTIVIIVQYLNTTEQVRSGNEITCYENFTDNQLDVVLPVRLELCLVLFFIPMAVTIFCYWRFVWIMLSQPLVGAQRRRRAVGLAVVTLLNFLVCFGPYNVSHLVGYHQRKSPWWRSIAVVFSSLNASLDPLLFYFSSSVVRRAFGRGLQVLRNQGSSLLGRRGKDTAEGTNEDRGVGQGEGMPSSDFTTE

The target of assay [2] is T1, free fatty acid receptor 2 (FFA2R; GPR43), WT (human). The source holds these as a separate data set.
The next assay deals with T2, FFA2R (GPR43) (Homo sapiens, UniProt O15552).
T2 construct: gene FFAR2; full-length WT receptor, transiently transfected in HEK293T cells together with a defined Galpha subunit, Rap1GAP-RlucII and rGFP-CAAX; plasmid from cDNA.org
T2 sequence (O15552 1-330): T1 sequence
As to the kind of experiment: ebBRET effector membrane translocation assay (Rap1GAP-RlucII / rGFP-CAAX), Galpha-i1 activation. It is filed as cell-based. The source says: ebBRET effector membrane translocation assay (Rap1GAP-RlucII / rGFP-CAAX), Galpha-i1 activation on FFA2R (GPR43)

Assay [3] concerns the target T1, free fatty acid receptor 2 (FFA2R; GPR43), WT (human). This is another data set of the same source.

Where two headings read alike, the source gives them in different places.

β-arrestin1-RlucII, sequence (P49407 whole entry): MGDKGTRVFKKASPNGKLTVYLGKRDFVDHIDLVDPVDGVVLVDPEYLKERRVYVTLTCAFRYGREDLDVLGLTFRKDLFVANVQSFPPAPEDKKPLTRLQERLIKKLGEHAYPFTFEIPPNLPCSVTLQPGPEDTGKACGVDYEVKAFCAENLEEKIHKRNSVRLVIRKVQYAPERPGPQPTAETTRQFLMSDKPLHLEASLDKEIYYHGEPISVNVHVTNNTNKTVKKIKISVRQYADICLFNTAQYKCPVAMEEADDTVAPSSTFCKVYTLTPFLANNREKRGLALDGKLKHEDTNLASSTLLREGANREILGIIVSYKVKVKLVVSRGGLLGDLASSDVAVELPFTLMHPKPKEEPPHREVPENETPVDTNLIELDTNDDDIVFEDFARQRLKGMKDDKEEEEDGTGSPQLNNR
β-arrestin2-RlucII, sequence (P32121 whole entry): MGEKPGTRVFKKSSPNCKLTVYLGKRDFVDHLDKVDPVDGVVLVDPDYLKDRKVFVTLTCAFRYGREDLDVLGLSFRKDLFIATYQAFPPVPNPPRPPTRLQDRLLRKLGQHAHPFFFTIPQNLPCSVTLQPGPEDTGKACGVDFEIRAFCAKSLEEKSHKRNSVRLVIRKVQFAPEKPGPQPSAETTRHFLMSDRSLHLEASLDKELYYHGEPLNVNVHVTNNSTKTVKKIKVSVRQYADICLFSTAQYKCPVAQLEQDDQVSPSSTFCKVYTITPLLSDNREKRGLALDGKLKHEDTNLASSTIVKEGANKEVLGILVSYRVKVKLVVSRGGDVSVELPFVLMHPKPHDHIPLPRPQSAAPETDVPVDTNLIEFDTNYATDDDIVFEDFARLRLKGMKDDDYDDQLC

With “β-arrestin2-RlucII (from UniProt P32121 1-409) (natural protein)”, in assay [1], the ebBRET max response, β-arrestin2-RlucII + rGFP-CAAX (with or without GRK2), HEK293T; propionate series after AZ1729 (1 µM, 5 min), vehicle and modulator-alone signals subtracted was 0.775 ∆BRET^2; the ebBRET max response, β-arrestin2-RlucII + rGFP-CAAX (with or without GRK2), HEK293T; propionate series after Cmp58 (1 µM, 5 min), vehicle and modulator-alone signals subtracted is 0.774 ∆BRET^2. In addition, the ebBRET max response, β-arrestin2-RlucII + rGFP-CAAX (with or without GRK2), HEK293T; propionate series up to 1 mM in assay [2] is 0.799 ∆BRET^2.
Consider `Cc1nc(NC(=N)N)sc1-c1cccc(NC(=O)c2ccc(F)cc2)c1` [AZ1729], for which the EC50 at FFA2R (GPR43) (read-out: AZ1729 / EC50) is 41 nM.
Regarding “Gαi2 (from UniProt P04899 1-355) (natural protein)”, in assay [1], the ebBRET (EMTA) max response, Rap1GAP-RlucII + rGFP-CAAX, HEK293T; propionate series after AZ1729 (1 µM, 5 min), vehicle and modulator-alone signals subtracted is 0.481 ∆BRET^2; the ebBRET (EMTA) max response, Rap1GAP-RlucII + rGFP-CAAX, HEK293T; propionate series after Cmp58 (1 µM, 5 min), vehicle and modulator-alone signals subtracted is 0.74 ∆BRET^2. The ebBRET (EMTA) max response, Rap1GAP-RlucII + rGFP-CAAX, HEK293T; propionate series up to 1 mM in assay [2] was 0.865 ∆BRET^2. Further, in assay [3], the ebBRET (EMTA) max response, Rap1GAP-RlucII + rGFP-CAAX, HEK293T; AZ1729 series, alone is 0.664 ∆BRET^2; the ebBRET (EMTA) max response, Rap1GAP-RlucII + rGFP-CAAX, HEK293T; Cmp58 + AZ1729 series, no propionate was 0.59 ∆BRET^2; the ebBRET (EMTA) max response, Rap1GAP-RlucII + rGFP-CAAX, HEK293T; Cmp58 series, alone is 0.567 ∆BRET^2.
For the compound “GαoA (from UniProt P09471 1-354) (natural protein)”, the ebBRET (EMTA) max response, Rap1GAP-RlucII + rGFP-CAAX, HEK293T; propionate series up to 1 mM in assay [2] was 0.415 ∆BRET^2. Besides, in assay [3], the ebBRET (EMTA) max response, Rap1GAP-RlucII + rGFP-CAAX, HEK293T; AZ1729 series, alone is 0.19 ∆BRET^2 and the ebBRET (EMTA) max response, Rap1GAP-RlucII + rGFP-CAAX, HEK293T; Cmp58 series, alone was 0.237 ∆BRET^2.
With “Gαi1 (from UniProt P63096 1-354) (natural protein)”, in assay [1], the ebBRET (EMTA) max response, Rap1GAP-RlucII + rGFP-CAAX, HEK293T; propionate series after AZ1729 (1 µM, 5 min), vehicle and modulator-alone signals subtracted is 0.817 ∆BRET^2; the ebBRET (EMTA) max response, Rap1GAP-RlucII + rGFP-CAAX, HEK293T; propionate series after Cmp58 (1 µM, 5 min), vehicle and modulator-alone signals subtracted is 0.841 ∆BRET^2. Moreover, in assay [2], the ebBRET (EMTA) max response, Rap1GAP-RlucII + rGFP-CAAX, HEK293T; propionate series up to 1 mM is 0.755 ∆BRET^2. Further, in assay [3], the ebBRET (EMTA) max response, Rap1GAP-RlucII + rGFP-CAAX, HEK293T; AZ1729 series, alone was 0.584 ∆BRET^2; the ebBRET (EMTA) max response, Rap1GAP-RlucII + rGFP-CAAX, HEK293T; Cmp58 + AZ1729 series, no propionate was 0.6 ∆BRET^2; the ebBRET (EMTA) max response, Rap1GAP-RlucII + rGFP-CAAX, HEK293T; Cmp58 series, alone was 0.525 ∆BRET^2.
On to “GαoB (from UniProt P09471-2 1-354) (natural protein)”, for which, in assay [1], the ebBRET (EMTA) max response, Rap1GAP-RlucII + rGFP-CAAX, HEK293T; propionate series after AZ1729 (1 µM, 5 min), vehicle and modulator-alone signals subtracted is 1.62 ∆BRET^2; the ebBRET (EMTA) max response, Rap1GAP-RlucII + rGFP-CAAX, HEK293T; propionate series after Cmp58 (1 µM, 5 min), vehicle and modulator-alone signals subtracted was 1.48 ∆BRET^2. In addition, the ebBRET (EMTA) max response, Rap1GAP-RlucII + rGFP-CAAX, HEK293T; propionate series up to 1 mM in assay [2] is 1.81 ∆BRET^2. Further, in assay [3], the ebBRET (EMTA) max response, Rap1GAP-RlucII + rGFP-CAAX, HEK293T; AZ1729 series, alone is 0.994 ∆BRET^2; the ebBRET (EMTA) max response, Rap1GAP-RlucII + rGFP-CAAX, HEK293T; Cmp58 + AZ1729 series, no propionate was 0.937 ∆BRET^2; the ebBRET (EMTA) max response, Rap1GAP-RlucII + rGFP-CAAX, HEK293T; Cmp58 series, alone is 0.742 ∆BRET^2.
Turning to “Gα11 (from UniProt P29992 1-359) (natural protein)”, in assay [1], the ebBRET (EMTA) max response, p63RhoGEF-RlucII + rGFP-CAAX, HEK293T; propionate series after AZ1729 (1 µM, 5 min), vehicle and modulator-alone signals subtracted is 1.36 ∆BRET^2; the ebBRET (EMTA) max response, p63RhoGEF-RlucII + rGFP-CAAX, HEK293T; propionate series after Cmp58 (1 µM, 5 min), vehicle and modulator-alone signals subtracted was 1.41 ∆BRET^2. The ebBRET (EMTA) max response, p63RhoGEF-RlucII + rGFP-CAAX, HEK293T; propionate series up to 1 mM in assay [2] is 1.82 ∆BRET^2. Besides, the ebBRET (EMTA) max response, p63RhoGEF-RlucII + rGFP-CAAX, HEK293T; Cmp58 series, alone in assay [3] is 0.33 ∆BRET^2.
Turning to “Gαi3 (from UniProt P08754 1-354) (natural protein)”, in assay [1], the ebBRET (EMTA) max response, Rap1GAP-RlucII + rGFP-CAAX, HEK293T; propionate series after AZ1729 (1 µM, 5 min), vehicle and modulator-alone signals subtracted was 0.533 ∆BRET^2; the ebBRET (EMTA) max response, Rap1GAP-RlucII + rGFP-CAAX, HEK293T; propionate series after Cmp58 (1 µM, 5 min), vehicle and modulator-alone signals subtracted is 0.485 ∆BRET^2. The ebBRET (EMTA) max response, Rap1GAP-RlucII + rGFP-CAAX, HEK293T; propionate series up to 1 mM in assay [2] was 0.859 ∆BRET^2. In addition, in assay [3], the ebBRET (EMTA) max response, Rap1GAP-RlucII + rGFP-CAAX, HEK293T; AZ1729 series, alone is 0.553 ∆BRET^2; the ebBRET (EMTA) max response, Rap1GAP-RlucII + rGFP-CAAX, HEK293T; Cmp58 + AZ1729 series, no propionate was 0.485 ∆BRET^2; the ebBRET (EMTA) max response, Rap1GAP-RlucII + rGFP-CAAX, HEK293T; Cmp58 series, alone was 0.574 ∆BRET^2.
Turning to “Gαz (from UniProt P19086 1-355) (natural protein)”, the ebBRET (EMTA) max response, Rap1GAP-RlucII + rGFP-CAAX, HEK293T; propionate series up to 1 mM in assay [2] is 0.757 ∆BRET^2.
Consider “Gα15 (from UniProt P30679 1-374) (natural protein)”, for which, in assay [1], the ebBRET (EMTA) max response, p63RhoGEF-RlucII + rGFP-CAAX, HEK293T; propionate series after AZ1729 (a lower concentration than 1 µM, not given), vehicle and modulator-alone signals subtracted was 0.533 ∆BRET^2; the ebBRET (EMTA) max response, p63RhoGEF-RlucII + rGFP-CAAX, HEK293T; propionate series after Cmp58 (a lower concentration than 1 µM, not given), vehicle and modulator-alone signals subtracted is 0.503 ∆BRET^2. Further, the ebBRET (EMTA) max response, p63RhoGEF-RlucII + rGFP-CAAX, HEK293T; propionate series up to 1 mM in assay [2] is 0.68 ∆BRET^2. Besides, in assay [3], the ebBRET (EMTA) max response, p63RhoGEF-RlucII + rGFP-CAAX, HEK293T; AZ1729 series, alone is 0.74 ∆BRET^2; the ebBRET (EMTA) max response, p63RhoGEF-RlucII + rGFP-CAAX, HEK293T; Cmp58 + AZ1729 series, no propionate is 0.43 ∆BRET^2; the ebBRET (EMTA) max response, p63RhoGEF-RlucII + rGFP-CAAX, HEK293T; Cmp58 series, alone was 0.588 ∆BRET^2.
“Gα14 (from UniProt O95837 1-355) (natural protein)”: the ebBRET (EMTA) max response, p63RhoGEF-RlucII + rGFP-CAAX, HEK293T; propionate series up to 1 mM in assay [2] is 0.677 ∆BRET^2. Also, in assay [3], the ebBRET (EMTA) max response, p63RhoGEF-RlucII + rGFP-CAAX, HEK293T; AZ1729 series, alone is 0.614 ∆BRET^2 and the ebBRET (EMTA) max response, p63RhoGEF-RlucII + rGFP-CAAX, HEK293T; Cmp58 series, alone was 0.195 ∆BRET^2.
Take `CC(C)(C)[C@H](C(=O)Nc1ncc(-c2ccccc2)s1)c1ccc(Cl)cc1` [Cmp58, (S)-2-(4-chlorophenyl)-3,3-dimethyl-N-(5-phenylthiazol-2-yl)butanamide]: the EC50 on FFA2R (GPR43) (read-out: Cmp58 / EC50) stood at 2280 nM.
As to “Gα13 (from UniProt Q14344 1-377) (natural protein)”, the ebBRET (EMTA) max response, PDZ-RhoGEF-RlucII + rGFP-CAAX, HEK293T; propionate series up to 1 mM in assay [2] was 0.588 ∆BRET^2.
For “β-arrestin1-RlucII (from UniProt P49407 1-418) (natural protein)”, the ebBRET max response, β-arrestin1-RlucII + rGFP-CAAX (with or without GRK2), HEK293T; propionate series up to 1 mM in assay [2] was 0.23 ∆BRET^2. Besides, in assay [3], the ebBRET max response, β-arrestin1-RlucII + rGFP-CAAX (with or without GRK2), HEK293T; AZ1729 series, alone was 0.166 ∆BRET^2 and the ebBRET max response, β-arrestin1-RlucII + rGFP-CAAX (with or without GRK2), HEK293T; Cmp58 series, alone is 0.0827 ∆BRET^2.
As for “Gαq (from UniProt P50148 1-359) (natural protein)”, in assay [1], the ebBRET (EMTA) max response, p63RhoGEF-RlucII + rGFP-CAAX, HEK293T; propionate series after AZ1729 (1 µM, 5 min), vehicle and modulator-alone signals subtracted was 1.04 ∆BRET^2; the ebBRET (EMTA) max response, p63RhoGEF-RlucII + rGFP-CAAX, HEK293T; propionate series after Cmp58 (1 µM, 5 min), vehicle and modulator-alone signals subtracted was 1.01 ∆BRET^2. Further, the ebBRET (EMTA) max response, p63RhoGEF-RlucII + rGFP-CAAX, HEK293T; propionate series up to 1 mM in assay [2] was 1.55 ∆BRET^2. In assay [3], the ebBRET (EMTA) max response, p63RhoGEF-RlucII + rGFP-CAAX, HEK293T; AZ1729 series, alone was 0.337 ∆BRET^2; the ebBRET (EMTA) max response, p63RhoGEF-RlucII + rGFP-CAAX, HEK293T; Cmp58 + AZ1729 series, no propionate was 0.121 ∆BRET^2; the ebBRET (EMTA) max response, p63RhoGEF-RlucII + rGFP-CAAX, HEK293T; Cmp58 series, alone was 0.132 ∆BRET^2.
